Patent US20250313631A1 (HUMMINGBIRD BIOSCIENCE PTE, published 2025)
Like-named read-outs stand apart in the source and are kept apart here.

T1: mouse FcRn (His-tagged, Sino Biological CT009-H08H) (mouse, UniProt Q61559 22-297)
T1 construct: also called mFcRn
T1 sequence (looked up): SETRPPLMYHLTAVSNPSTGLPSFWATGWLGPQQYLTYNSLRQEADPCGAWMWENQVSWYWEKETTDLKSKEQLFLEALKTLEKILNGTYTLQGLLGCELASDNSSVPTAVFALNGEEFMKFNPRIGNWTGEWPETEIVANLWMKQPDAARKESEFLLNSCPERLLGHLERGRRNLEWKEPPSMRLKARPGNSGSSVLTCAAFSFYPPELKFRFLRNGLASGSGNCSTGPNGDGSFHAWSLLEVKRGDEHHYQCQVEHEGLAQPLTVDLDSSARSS

T2: mouse FcγRIV (His-tagged, Sino Biological 50036-M08H) (mouse, UniProt A0A0B4J1G0 21-203)
T2 construct: also called mFcγRIV; not shown: the histidine tag (and any linker) of the Sino Biological construct 50036-M08H
T2 sequence: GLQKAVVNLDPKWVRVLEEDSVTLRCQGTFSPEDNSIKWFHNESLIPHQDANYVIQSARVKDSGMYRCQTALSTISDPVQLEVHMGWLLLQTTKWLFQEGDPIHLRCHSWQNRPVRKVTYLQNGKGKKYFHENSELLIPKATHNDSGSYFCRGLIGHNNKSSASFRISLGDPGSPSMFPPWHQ

T3: mouse FcγRIII (His-tagged, Sino Biological 50326-M08H) (mouse, UniProt P08508 31-215)
T3 construct: also called mFcγRIII
T3 sequence (looked up): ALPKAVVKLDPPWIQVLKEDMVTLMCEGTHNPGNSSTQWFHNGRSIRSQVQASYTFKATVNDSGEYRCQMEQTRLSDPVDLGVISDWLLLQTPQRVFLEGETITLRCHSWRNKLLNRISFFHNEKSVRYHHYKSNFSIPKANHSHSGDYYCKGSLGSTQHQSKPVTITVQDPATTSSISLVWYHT

T4: mouse FcγRIIb (His-tagged, Sino Biological 50030-M08H) (mouse, UniProt P08101 30-217)
T4 construct: also called mFcγRIIb
T4 sequence (looked up): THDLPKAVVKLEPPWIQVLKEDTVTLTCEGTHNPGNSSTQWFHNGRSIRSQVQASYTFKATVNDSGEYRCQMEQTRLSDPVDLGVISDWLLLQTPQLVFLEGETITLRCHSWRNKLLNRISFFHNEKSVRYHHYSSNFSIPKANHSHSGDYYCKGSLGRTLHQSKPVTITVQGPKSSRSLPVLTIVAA


Legend:
[1] = target: T1, mouse FcRn (His-tagged, Sino Biological …); test: BLI summary table, mFcRn, pH 5.8
[2] = target: T1, mouse FcRn (His-tagged, Sino Biological …); test: BLI summary table, mFcRn, pH 5.8; remark: listed apart in the source
[3] = target: T1, mouse FcRn (His-tagged, Sino Biological …); test: BLI summary table, mFcRn, pH 5.8; remark: listed apart in the source
[4] = target: T2, mouse FcγRIV (His-tagged, Sino …); test: BLI (Octet QK384): His-tagged receptor on anti-Penta-HIS biosensor, antibody as analyte, PBS pH 7.2
[5] = target: T3, mouse FcγRIII (His-tagged, Sino …); test: as above
[6] = target: T4, mouse FcγRIIb (His-tagged, Sino …); test: as above
[7] = target: T1, mouse FcRn (His-tagged, Sino Biological …); test: BLI (Octet QK384): His-tagged mFcRn on anti-Penta-HIS biosensor, antibody as analyte, PBS pH 5.8, global 1:1 fit
[8] = target: T2, mouse FcγRIV (His-tagged, Sino …); test: BLI summary table, mFcgRIV, pH 7.2
[9] = target: T4, mouse FcγRIIb (His-tagged, Sino …); test: BLI (Octet QK384): His-tagged receptor on anti-Penta-HIS biosensor, antibody as analyte, PBS pH 7.2; remark: listed apart in the source
[10] = target: T1, mouse FcRn (His-tagged, Sino Biological …); test: BLI (Octet QK384): His-tagged mFcRn on anti-Penta-HIS biosensor, antibody as analyte, PBS pH 5.8, global 1:1 fit; remark: listed apart in the source
[11] = target: T2, mouse FcγRIV (His-tagged, Sino …); test: BLI (Octet QK384): His-tagged receptor on anti-Penta-HIS biosensor, antibody as analyte, PBS pH 7.2; kon = ND and KD = ND are printed beside it

kon [1] [M⁻¹ s⁻¹] | koff [2] [s⁻¹] | Kd [3] [nM] | binding result [4] | binding result [5] | binding result [6] | Kd [7] [nM] | koff [7] [s⁻¹] | kon [7] [M⁻¹ s⁻¹] | koff [8] [s⁻¹] | binding result [9] | Kd [10] [nM] | koff [10] [s⁻¹] | kon [10] [M⁻¹ s⁻¹] | koff [11] [s⁻¹] | Binder
270000 | 0.0097 | 35.8 | no binding | no binding | no binding | 35.8 | 0.0097 | 270000 |  |  |  |  |  |  | 4M2-C12 mIgG2a LALA PG (antibody) heavy: EVKLVESGPGLVKPSQSLSLTCTVTGYSITSDYAWNWIRQFPGNKLEWMGYITYSGNISYNPSLRSRISITRDTSKNQFFLQLNSVTPEDTATYSCARSLYYPWYFDVWGAGTTVTVSSAKTTAPSVYPLAPVCGDTTGSSVTLGCLVKGYFPEPVTLTWNSGSLSSGVHTFPAVLQSDLYTLSSSVTVTSSTWPSQSITCNVAHPASSTKVDKKIEPRGPTIKPCPPCKCPAPNAAGGPSVFIFPPKIKDVLMISLSPIVTCVVVDVSEDDPDVQISWFVNNVEVHTAQTQTHREDYNSTLRVVSALPIQHQDWMSGKEFKCKVNNKDLGAPIERTISKPKGSVRAPQVYVLPPPEEEMTKKQVTLTCMVTDFMPEDIYVEWTNNGKTELNYKNTEPVLDSDGSYFMYSKLRVEKKNWVERNSYSCSVVHEGLHNHHTTKSFSRTPGK light: DIVITQTPAILSTSPGEKVTMTCRASSSVGYIHWYQQKPGSSPKPWIYATSNLASGVPARFSGSGSGTSNSLTITRVEAEDAATYYCQQWSSYPPITFGGGTKLEVKRADAAPTVSIFPPSSEQLTSGGASVVCFLNNFYPKDINVKWKIDGSERQNGVLNSWTDQDSKDSTYSMSSTLTLTKDEYERHNSYTCEATHKTSTSPIVKSFNRNEC
180000 | 0.0075 | 42.5 |  |  |  |  |  |  | 0.348 | no binding | 42.5 | 0.0075 | 180000 | 0.348 | 4M2-C12 mIgG2a NQ (antibody) heavy chain: EVKLVESGPGLVKPSQSLSLTCTVTGYSITSDYAWNWIRQFPGNKLEWMGYITYSGNISYNPSLRSRISITRDTSKNQFFLQLNSVTPEDTATYSCARSLYYPWYFDVWGAGTTVTVSSAKTTAPSVYPLAPVCGDTTGSSVTLGCLVKGYFPEPVTLTWNSGSLSSGVHTFPAVLQSDLYTLSSSVTVTSSTWPSQSITCNVAHPASSTKVDKKIEPRGPTIKPCPPCKCPAPNLLGGPSVFIFPPKIKDVLMISLSPIVTCVVVDVSEDDPDVQISWFVNNVEVHTAQTQTHREDYQSTLRVVSALPIQHQDWMSGKEFKCKVNNKDLPAPIERTISKPKGSVRAPQVYVLPPPEEEMTKKQVTLTCMVTDFMPEDIYVEWTNNGKTELNYKNTEPVLDSDGSYFMYSKLRVEKKNWVERNSYSCSVVHEGLHNHHTTKSFSRTPGK light chain: DIVITQTPAILSTSPGEKVTMTCRASSSVGYIHWYQQKPGSSPKPWIYATSNLASGVPARFSGSGSGTSNSLTITRVEAEDAATYYCQQWSSYPPITFGGGTKLEVKRADAAPTVSIFPPSSEQLTSGGASVVCFLNNFYPKDINVKWKIDGSERQNGVLNSWTDQDSKDSTYSMSSTLTLTKDEYERHNSYTCEATHKTSTSPIVKSFNRNEC
